According to FireProtDB (doi:10.1110/ps.03220403):

B1: wild type, Q8NJY3 (protein)
chain: MLKSALLLGAAAVSVQSASIPTIPANLEPRQIRSLCELYGYWSGNGYELLNNLWGKDTATSGWQCTYLDGTNNGGIQWSTAWEWQGAPDNVKSYPYVGKQIQRGRKISDINSMRTSVSWTYDRTDIRANVAYDVFTARDPDHPNWGGDYELMIWLARYGGIYPIGTFHSQVNLAGRTWDLWTGYNGNMRVYSFLPPSGDIRDFSCDIKDFFNYLERNHGYPAREQNLIVYQVGTECFTGGPARFTCRDFRADLW
B2: wild type, O00095 (protein)
chain: MKFLQVLPALIPAALAQTSCDQWATFTGNGYTVSNNLWGASAGSGFGCVTAVSLSGGASWHADWQWSGGQNNVKSYQNSQIAIPQKRTVNSISSMPTTASWSYSGSNIRANVAYDLFTAANPNHVTYSGDYELMIWLGKYGDIGPIGSSQGTVNVGGQSWTLYYGYNGAMQVYSFVAQTNTTNYSGDVKNFFNYLRDNKGYNAAGQYVLSYQFGTEPFTGSGTLNVASWTASIN

Conditions: pH 8, Thermal, CD, Bis-Tris propane ammonium acetate 0.05 M 0.05 M, reversible: No, whole UniProt chain shown

| Protein | Tm (Trichocladium griseum) | Tm (Hypocrea jecorina) |
| --- | --- | --- |
| B1 | 68.7 °C | – |
| B2 | – | 54.4 °C |
